# Values quoted from earlier work in article PMC11677424, “Early-Stage IM Treatment with the Host-Derived Immunostimulant CPDI-02 Increases Curative Protection of Healthy Outbred Mice Against Subcutaneous Infection with Community-Acquired Methicillin-Resistant Staphylococcus aureus USA300” (Pharmaceutics, 2024).
# Experiments:
# [1] = test system: primary human neutrophils (NPs); conditions: cited from earlier work
# Excerpt: (§1) Complement Peptide-Derived Immunostimulant-02 (CPDI-02) (formerly EP67) is a novel, second-generation host-derived decapeptide agonist of […] (C5) Receptor 1 (C5aR1/C5a1R/CD88), which is based on the C-terminal pharmacophore of human Complement Peptide C5a (hC5a).
# [2] = test system: primary human mononuclear phagocytes (MPs); conditions: primary human MPs; cited from earlier work
# Excerpt: as §1
molecule,measurement,setting,value
"hC5a: human Complement Peptide C5a, the parent molecule of CPDI-02 (protein, UniProt P01031 678-751, looked up, C5a anaphylatoxin) C5a anaphylatoxin: TLQKKIEEIAAKYKHSVVKKCCYDGACVNNDETCEQRAARISLGPRCIKAFTECCVVASQLRANISHKDMQLGR",EC50,[1],~7 nM
same,EC50,[2],~7 nM
